Reference: publication PMC3034312

Substrate: CC(C)=CCC/C(C)=C/CC/C(C)=C/CO[P@@](=O)(O)OP(=O)(O)O
Assay: steady-state kinetics, 30-min radiolabel incubations
Assay type: biochemical, Streptomyces clavuligerus
Details: labelled compound ([1-3H]-FPP, 0.25 to 7.5 μM)

B1: SSCG_02150; (−)-δ-cadinene synthase (Streptomyces clavuligerus) (protein)
chain: MSTRPVEGSAIWDVLSPHSPHAAAADGKTLVWVEAGELCGHDTAESANLARIRPGLLAAFCHPKATEDDLTLITKWMAWLFLLDDRIDESDLGRDADLLDGHLQDLQGVALGIRTASGPMSRALEEIITQASAGMGDAWQLRFRRNISDYLLACVWQAAHRQAGEFPDPEVFPHWRRAFGAIMPSFDLIERTDGGALPSCVYYSRPYQSLLTAAADLVCWTNDLMTVDKEAAHGDLHNLVLVTEHDRHQDRRTASAAVSAACEQRMRAHTSARRDLTGLTAALGLPDTVRTHADDCAASLLVWVRGHLEWGLETPRYRPGTTGTGTD
In the case of B1, the Km is reported as 1.4 ± 0.1 µM and the kcat is reported as 1.14 ± 0.03 × 10^−3 s^−1.

B2: SSCG_03688; (+)-T-muurolol synthase (Streptomyces clavuligerus) (protein)
chain: MSLNHSDLMFYCPVDDLPHPAASGVNDRTLDWASGQGIPTADRDAGRLRAMAPGLLAARIAPDARGPVLDAFADHHTWLFAFDDEYCDRADGSGITEWASFLARLHRVVETGESALLPGNPYGLALRDIACRLSTYTTPAQLAEWLEALRSYFAALVWERSRRRDDDRLQSLDDYLLLRLRNGAMHTSITLLDTVNGYVLPRELRETPGVRALVEMTALLVSVDNDILSHHKESTSGTREANLLDVLGRTGHTTPGEAVAQAVALRNEIMRQFVRVAERVRTPAAVPELYRFTTGLARWIRANLDFSLTTTRYTGPVTERAALSPHEVPPLSGQGPAPARSDVIGWWWRIPEPLPEPGSDGADTPVRKRRAGDRPPTAGRGGAPHHQRTGPPPPVLPGGITASRSSGLQQSTWRREHR
For B2, the Km was 2.7 ± 0.3 µM and the kcat was 1.63 ± 0.09 × 10^−3 s^−1.
